T1: HBV surface antigen (HBsAg), S20-28, genotypes B and C peptide on HLA-A*02:01 (human)
T1 peptide: FLLTKILTI

B1: A01 TCR (TCR, V domains shown)
Valpha: QQGEEDPQALSIQEGENATMNCSYKTSINNLQWYRQNSGRGLVHLILIRSNEREKHSGRLRVTLDTSKKSSSLLITASRAADTASYFCATDERDDMRFGAGTRLTVKP
Vbeta: GVIQSPRHEVTEMGQEVTLRCKPISGHDYLFWYRQTMMRGLELLIYFNNNVPIDDSGMPEDRFSAKMPNASFSTLKIQPSEPRDSAVYFCASSLNTEAFFGQGTRLTVV
B2: C01 TCR (TCR, V domains shown)
Valpha: QQGEEDPQALSIQEGENATMNCSYKTSINNLQWYRQNSGRGLVHLILIRSNEREKHSGRLRVTLDTSKKSSSLLITASRAADTASYFCATDAYGQNFVFGPGTRLSVLP
Vbeta: GVIQSPRHEVTEMGQEVTLRCKPISGHDYLFWYRQTMMRGLELLIYFNNNVPIDDSGMPEDRFSAKMPNASFSTLKIQPSEPRDSAVYFCASGSNTEAFFGQGTRLTVV
B3: B01 TCR (TCR, V domains shown)
Valpha: QELEQSPQSLIVQEGKNLTINCTSSKTLYGLYWYKQKYGEGLIFLMMLQKGGEEKSHEKITAKLDEKKQQSSLHITASQPSHAGIYLCGADTSTDKLIFGTGTRLQVFP
Vbeta: GVTQTPRYLIKTRGQQVTLSCSPISGHRSVSWYQQTPGQGLQFLFEYFSETQRNKGNFPGRFSGRQFSNSRSEMNVSTLELGDSALYLCASSHGGAYEQYFGPGTRLTVT
B4: B01 TCR (HBV S20 TCR, modified, expressed on B01 TCR-T cells) (TCR, V domains shown)
V domain 1: SQELEQSPQSLIVQEGKNLTINCTSSKTLYGLYWYKQKYGEGLIFLMMLQKGGEEKSHEKITAKLDEKKQQSSLHITASQPSHAGIYLCGADTSTDKLIFGTGTRLQVFP
V domain 2: KAGVTQTPRYLIKTRGQQVTLSCSPISGHRSVSWYQQTPGQGLQFLFEYFSETQRNKGNFPGRFSGRQFSNSRSEMNVSTLELGDSALYLCASSHGGAYEQYFGPGTRLTVTE
B5: C01 TCR (HBV S20 TCR, modified, expressed on C01 TCR-T cells) (TCR, V domains shown)
V domain 1: SQQGEEDPQALSIQEGENATMNCSYKTSINNLQWYRQNSGRGLVHLILIRSNEREKHSGRLRVTLDTSKKSSSLLITASRAADTASYFCATDAYGQNFVFGPGTRLSVLP
V domain 2: GVIQSPRHEVTEMGQEVTLRCKPISGHDYLFWYRQTMMRGLELLIYFNNNVPIDDSGMPEDRFSAKMPNASFSTLKIQPSEPRDSAVYFCASGSNTEAFFGQGTRLTVVE

Experiments:
[1] = target: T1, HBV surface antigen (HBsAg), S20-28, …; assay: cytokine release
[2] = target: S20 epitope peptide presented by HLA-A*02:01 on HepG2 cells (Hepatitis B virus, genotypes A and D; …); assay: cell-based or functional assay

Row | Binder | binding result [1] | killing ratio on HepG2-LMS-LG cells (RTCA, 48 h, E:T 2:1, 1:2, 1:8) [2] [%]
1 | B1 | recognises | 
2 | B2 | recognises | 
3 | B3 | recognises | 
4 | B4 |  | > 60
5 | B5 |  | > 60

From patent publication US20260021140A1 (SCG CELL THERAPY PTE, published 2026)
